This note sets out measurements from patent publication US20100322946A1.

For test [1], the target named is human VEGF (form not stated) (human) (UniProt P15692). Put plainly: biotin-hVEGF with IgG, free VEGF captured on Avastin.
The target of a further test is human VEGF165 (human) (UniProt P15692). Put plainly: competition ELISA, hVEGF165 in solution varied. On the technique in general: ELISA stands for enzyme-linked immunosorbent assay.
Chain of human VEGF165 (human) (P15692 other isoform, or with tags, fused parts or gaps): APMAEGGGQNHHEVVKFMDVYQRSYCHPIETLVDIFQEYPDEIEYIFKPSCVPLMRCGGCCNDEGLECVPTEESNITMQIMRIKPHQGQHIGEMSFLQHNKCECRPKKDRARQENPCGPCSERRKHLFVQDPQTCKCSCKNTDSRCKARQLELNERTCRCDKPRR

Consider G6 hIgG (antibody), for which the IC50 (read off the curve) (in test [1]; with human VEGF165 (human)) was 3 nM throughout.
